Consider four molecules from patent US12540197B2, “Anti-tissue factor antibodies and antibody conjugates, compositions comprising anti-tissue factor antibodies or antibody conjugates, and methods of making and using anti-tissue factor antibodies and antibody conjugates” (SUTRO BIOPHARMA, INC., priority 2023, dated 2026).

To fix the notation:
B1: SRP2901-E03 (antibody, V domains shown)
VH: MEVQLVESGGGLVQPGGSLRLSCAASGFSISSYDMSWVRQAPGKGLEWIGIIGSNGRTYYPDSVKGRFTISRDNSKNTVTLQMNSLRAEDTAVYYCARGLYDGTGNIWGQGTLVTVSS
VL: MELVMTQSPPTLSLSPGERVTLSCRASQSVYGNNWLSWYQQKPGQAPRLLIYGASKLATSIPARFSGSGSGTQFTLTISSLQPEDFAVYYCQGTYYSGDWYFAFGQGTKVEIK
B2: SRP2901-F01 (antibody, V domains shown)
VH: MQVQVVESGGGLVKPGGSLRLSCAASGFSISSYDMSWIRQAPGKGLEWIGIIGSNGRTYYADSVKGRFTISRNTNENTVYLQMNSLRAEDTAVYYCARGLYDGTGNIWGQGTLVTVSS
VL: MDIQMTQSPSSLSASVGDRVTITCQASQSVYGNNWLSWYQQKPGKAPKLLIYGASKLASGVPSRFSGSGSGTDFTLTISSLQPEDFATYYCQGTYYSGDWYFAFGGGTKVEIK
B3: SRP2901-D03 (antibody, V domains shown)
VH: MEVQLVESGGGLVQPGGSLRLSCAASGFSISSYDMSWVRQAPGKGLEWIGIIGSNGRTYYPDSVKGRFTISRDNSKNTVTLQMNSLRAEDTAVYYCARGLYDGTGNIWGQGTLVTVSS
VL: MDLQMTQSPSSLSASVGDRVTITCRASQSVYGNNWLSWYQQKPGKAPKLLIYGASKLASGVPSRFSGSGSGTQFTLTISSLQPEDFATYYCQGTYYSGDWYFAFGQGTKVEIK
B4: SRP2901-B05 (antibody, V domains shown)
VH: MQVQVQESGPGLVKPPGTLSLTCAVSGFSLSYYGVSWVRQPPGKGLEWIGTIDSSGRTYYNPSLKSRVTISNDNAPNTVSLKLSSVTAADTAVYYCARDFYGWNSGALDIWGQGTLVTVSS
VL: MDLQLTQSPSTLSASVGDRVTITCRASQSVYSNKYLSWYQQKPGKAPKLLIYKASTLASGVPSRFSGSGSGTEFTLTISSLQPDDFATYYCAAAYSDDSDTAFGQGTKVEIK

As usually defined, the EC50 is the concentration needed to bring the measured effect to its halfway point.

This experiment relates to BxPC3 cells. Briefly: Secondary ADC cell killing assay (antibody + anti-human Fc nanobody conjugated to SC236) on BxPC3. It is filed as cell-based. The note with it: Table 17; nanobody-SC236 20 nM, 120 hrs. The method, then: The internalization ability of the lead antibodies was evaluated by an ADC cell killing assay on Tissue Factor positive BxPC3 cells. A total of 625 cells in a volume of 25 μL were seeded in each well of a 384-well flat bottom white polystyrene plate. Lead antibodies were formulated at 4-fold starting concentration in the cell culture medium and filtered through MultiScreenHTS 96-Well Filter Plates (Millipore; Billerica, Massachusetts). 12.5 μL of antibody was added into each treatment well, and 12.5 μL of anti-human Fc nanobody conjugated to SC236 was then added into each well at a fixed final concentration of 20 nM. Assay plates were cultured at 37° C. in a CO2 incubator for 120 hrs before assay. For cell viability measurement, 30 μL of Cell Titer-Glo® reagent (Promega Corp. Madison, WI) was added into each well, and plates were processed as per product instructions. Relative luminescence was measured on an ENVISION® plate reader (Perkin-Elmer; Waltham, MA). Relative luminescence readings were converted to percent viability using untreated cells as controls. Data was fitted with non-linear regression analysis, using a log (inhibitor) vs. response-variable slope, 4 parameter fit with GraphPad Prism (GraphPad v 5.0, Software; San Diego, California).
As for B1, the “BxPC3 Cell Killing Span (%)” value was determined as 92.4% and the half-maximal effective concentration (EC50) was determined as 0.166 nM.

As for B2, the “BxPC3 Cell Killing Span (%)” value amounted to 87% and the half-maximal effective concentration (EC50) turned out to be 0.364 nM.

With B3, the “BxPC3 Cell Killing Span (%)” value was found to be 77.4% and the 50% effective concentration (EC50) is 0.184 nM.

For the molecule B4, the “BxPC3 Cell Killing Span (%)” value is on record as 84% and the EC50 was found to be 0.059 nM.
